The values below come from patent publication US20240124857A1, “COMPOSITION FOR GUT HEALTH” (DUPONT NUTRITION BIOSCIENCES APS, priority 2021, published 2024).

A short description of data set [1]: pH profile of enzymes on 1 mM ATP. Type of data set: biochemical. To be noted: 50 mM trisodium citrate/citric acid, 5 mM CaCl2, relative to the highest value. Here is the method:
The pH profile of additional enzymes of interest was assayed using 1 mM ATP, in 50 mM trisodium citrate/citric acid buffer with 5 mM CaCl2. Absorbance was read at 620 nm and all values were set relative to the highest one. Commercial potato apyrase was used as reference. […]

Data set [2] is described as follows: ATPase activity at 0.05 ppm enzyme on 0.1 mM ATP (absorbance 620 nm). Type of data set: biochemical. The note with it: for Activity on ATP (absorbance at 620 nm, blank subtracted), pH 5.0: 50 mM IVIES buffer pH 5; for Activity on ATP (absorbance at 620 nm, blank subtracted), pH 6.0: 50 mM IVIES buffer pH 6. Here is the method:
Enzyme activity towards ATP or ADP at pH 3 to 9: The ability of candidate enzymes to degrade ATP or ADP to AMP and free phosphate (Pi) was measured using a standard malachite green phosphate detection kit (Sigma Aldrich cat no. MAK307). The enzyme reactions were carried out in 96-well plates with a total volume of 150 μL and contained 250 μM of a substrate, 50 mM of a buffer, 5 mM CaCl2, and a variable concentration of enzyme. The substrate was ATP or ADP. The buffer was glycine (pH 3), acetate (pH 4, 4.5, 5), bis-Tris (pH 5.5, 6, 6.5), or Tris (pH 7, 8, 9). The concentration of enzyme varied from about 1 μg/mL to 1 ng/mL and was adjusted based on the activity of the enzyme so that the amount of phosphate released during the assay was with the dynamic range of the assay (5-100 μM phosphate). The enzyme concentration was determined by the absorbance at 280 nm and using the predicted molecular weight and molar extinction coefficient to calculate the concentration. The enzyme reaction was initiated by the addition of 15 μL enzyme with 135 μL of the other reaction components such that the final reaction composition was as previously described. The reaction was stopped after 5 min by mixing 80 μL of the reaction mixture with 20 μL of the malachite green working reagent. The malachite green working reagent was prepared according to the manufacturer's protocol by mixing 100 parts reagent A with 1 part reagent B. Phosphate standard solutions (0-80 μM) and a negative control reaction without enzyme were also mixed with the malachite green working reagent. All samples were tested in duplicate. The malachite green reaction mixture was allowed to rest at room temperature for 45-60 min and the absorbance at 620 nm was measured. Lastly, the absorbance of the phosphate standards were used to convert the absorbance readings of each sample into phosphate concentrations and the negative control was subtracted from each reaction.
Enzymes of interest were assayed against ATP substrate. The ATPase activity was measured at 0.05 ppm concentration in 50 mM IVIES buffer pH 6 and pH 5 with 0.1 mM ATP as substrate as described in Example 1. Commercial potato apyrase was used as reference. The absorbance at 620 nm was measured and the absorbance of a blank sample (water) was subtracted from each sample.

B1: CRC22606: GDA1/CD39 family enzyme, accession OQW93475.1, SEQ ID NO:15 (protein, listed as Beggiatoa sp.)
chain: ETNGPAACHIVYDAGSSGTRLYIYEQQDKAWLEHEGPKVSALADPVREIRGKHWKDAESVTIEVVSALDSIKQDGPVKGDKPAWKAFDWTKHCQIKSAGVYATAGMRLAEQANKERSVTLWASLKQKLAAKLGPTVDIEARTLTGYEEGLYAWLAVREQQPDDSFAIAEMGGASAQITFPCAKCDENDPDTKTVQLSGKHLQIYSYSFLGLGQDEASHSLGFPTSCANGIGTQQSGWKAQDCANQIQLTGSKGIRDPYDFDGEQRGAHEQPPIAQADSNRWFLTGAFNYMNASNIETYCLKDPKLSEEESFCFRSIYPEKYLETLKIPVNSPKMNVSWTQGAVICKANSCLEAATKTPPLCRWLDKGCLP
For the molecule B1, in data set [1], the “Relative activity on ATP, pH 3” value is reported as 0.0; the “Relative activity on ATP, pH 3.5” value amounted to 0.0; the “Relative activity on ATP, pH 4” value amounted to 0.0; the “Relative activity on ATP, pH 4.5” value is 0.3. Also, in data set [1], the “Relative activity on ATP, pH 5” value came out at 0.6; the “Relative activity on ATP, pH 5.5” value stood at 0.8; the “Relative activity on ATP, pH 6” value stood at 0.9; the “Relative activity on ATP, pH 6.5” value came to 1.0. Besides, in data set [2], the “Activity on ATP (absorbance at 620 nm, blank subtracted), pH 5.0” value (“Activity on ATP … pH 5.0” for short) came out at 0.43 and the “Activity on ATP (absorbance at 620 nm, blank subtracted), pH 6.0” value (“Activity on ATP … pH 6.0” for short) worked out at 0.21.

B2: CRC22387: GDA1/CD39 family enzyme, accession WP_127099836.1, SEQ ID NO:13 (protein, listed as Legionella sp.)
chain: QSSPCEKQQCIAIVDAGSTGSRLHIYAYDLDVTKTPIHIKELWNKKITPGFARIEANTNTIDSYLTILLADSPIKKIPIYFYATAGMRLLPQMKQKKYYDELSSWFKKHSEWQLVEAKTITGNEEGLYDWLSVNYHLGNFESPTNKSIGVMDMGGASVQIVFPIAETPTINDKSQIQVNLYGRHYNLYVHSFLGLGQTEMSHQFLNSASCFVNNYPLPDGAEGQGNALSCEQEVSSLMNQVHGVNQLIQPLLAANPVDSWYSIGGISNLADSQFFNFQHSQLTNQDLLEQADSQICHQQWEDINNQYPDDDYVYQYCLFSAYYYALMVDGYGLYPEQTINYLPPQQNIDWTTGVVLHQQR
Take B2: in data set [1], the “Relative activity on ATP, pH 3” value stood at 0.1; the “Relative activity on ATP, pH 3.5” value is 0.0; the “Relative activity on ATP, pH 4” value is listed as 0.0; the “Relative activity on ATP, pH 4.5” value was found to be 0.1. In addition, in data set [1], the “Relative activity on ATP, pH 5” value turned out to be 0.3; the “Relative activity on ATP, pH 5.5” value was found to be 0.5; the “Relative activity on ATP, pH 6” value is 1.0; the “Relative activity on ATP, pH 6.5” value is on record as 1.0. Besides, in data set [2], the “Activity on ATP … pH 5.0” value turned out to be 0.36 and the “Activity on ATP … pH 6.0” value was 0.11.

B3: CRC22112: GDA1/CD39 family enzyme, accession KTD66016.1, SEQ ID NO:10 (protein, listed as Legionella santicrucis)
chain: ESAECTEHQCMAVVDAGSTGSRAHIFAYDLDETNTPSQIHEIWSKKIKPGLATIEANQDTIDAYLTILFSGAPKQNIPVYFYATGGMRLIPQTKQKLYYKEIQNWFNQQSIWQLIEAKTITGNDEALYDWLAVNYHIGTLKSSTTEPIGVMDIGGASVQIAFPIPKDVETNKSSQVELDLYGKHLNLFVHSFLGLGQNEVTHQLLDTNSCFSEGYPLPGGNLGQGDAVICQQEVSSLINRVHKVQSEVQPTLATNRITMWYAIGGLTNLVESEPFQFQNNQITNQDLLQQANSLICHQQWEGLSTQFPDNEYIESFCLLPAFYYALMIDGYGISVTQPVKYISPRENLDWTTGVVLHH
As for B3, in data set [2], the “Activity on ATP … pH 5.0” value is 0.04 and the “Activity on ATP … pH 6.0” value is 0.06.

B4: CRC22383: GDA1/CD39 family enzyme, accession WP_058475114.1, SEQ ID NO:11 (protein, listed as Legionella quateirensis)
chain: ADNPCTNHQCIAVIDAGSTGSRLHVFSYDVDETRSPININEIWNKKIKPGFATIEPNSNTIDAYLTTLLSGAPNQQIPVYFYATAGMRLLPVSKQKKYYDELQHWFSQQSQWQLVEAKTITGNDEALYDWLSVNYHLGTLQKSLNQSVGVMDMGGASVQIVFPIQKNSELNTRSQVELDLYGQHYTLYVQSFLGLGQTEVAHQFLNSAPCFSNDYPLPDGESGQGNASACEQEVSRLMTEVHKVNNVIQPLLAANPVDSWYSIGGISNLADSSLFHFENSKLTNQNLLQQADSQVCHQQWDSLNSQFPDDEYVYQYCLFSAYYYALMVDGYGIVPDQSINYIPPAQNLDWTMGVVLHH
In the case of B4, in data set [2], the “Activity on ATP … pH 5.0” value stood at 0.07 and the “Activity on ATP … pH 6.0” value is 0.10.

B5: CRC22605: GDA1/CD39 family enzyme, accession WP_133471262.1, SEQ ID NO:14 (protein, listed as Paraglaciecola sp.)
chain: QSKKPCYIVYDAGSSGTRLYIYEQLGANLISHEGPKVSALADPIRYTHGKDLSDLDTITNEVASALDLIKLDGPLEEGKPKWSGFDWSKQCEAQSVKVFATAGMRIAEQINPADSLVLWQTLASKINAKVGHNIKVEARTLTGFEEGLFAWLSVKDVYPSGHYGMVEMGGASSQITFPCPQCSLANDAVKTVTVDGKPIQIYSYSYLGLGQNEAPYSLPFGVAGQVPKSCSYGVGANNPDWTIASCAVEIPITAKGSNTDIIDPYNYTKTGTKGTTNTLPAAHKNIPKWLLMGAFNYAKETDIDDFCFNQHDGYYNAFTACFNPIYLDKYLKTLNIQAEQSSKVDVSWTQGAVICQIENCLATITPPPVCRWMKSGCLAY
Take B5: in data set [1], the “Relative activity on ATP, pH 3” value came out at 0.0; the “Relative activity on ATP, pH 3.5” value turned out to be 0.0; the “Relative activity on ATP, pH 4” value amounted to 0.0; the “Relative activity on ATP, pH 4.5” value is on record as 0.0. Moreover, in data set [1], the “Relative activity on ATP, pH 5” value worked out at 0.4; the “Relative activity on ATP, pH 5.5” value is listed as 0.8; the “Relative activity on ATP, pH 6” value was found to be 1.0; the “Relative activity on ATP, pH 6.5” value came to 1.0. In data set [2], the “Activity on ATP … pH 5.0” value was 0.50 and the “Activity on ATP … pH 6.0” value is 0.28.

B6: CRC22620: GDA1/CD39 family enzyme, accession NBS62745.1, SEQ ID NO:16 (protein, listed as Betaproteobacteria sp.)
chain: EDAARYLAVIDAGSSGSRLHLYERTAAERSVAVKQLFEAKAGEALSSFERSPGDAGPRGIQPLLEQLLDRLALLNIERSAVHVHVLATAGMRRLDADNPAAAQVIYQSVRHTLSSAGVTARRIETLSGHLEGVYAWVDVNDLSGALASTPAGATVAVIEVGGASAQLAYSGEALAGAPVTAVRLNGRSHQVVSLTWLGLGQDEARRAMLNAARSRSNADEEHCYPDNRKAAGGLSAFDADGSRHLVARGRFSFEQCSEMYDAVIRPFDLPPLATAIRQSRRPLVGLASVYFSLADWQVIGQPGTLASTLRGQCEGEDAYGDKVIGFIRRDPKNRFAQTACANGTFIHALLFGPAGLRVDPAQVSAVARINGQPPSWARGFALLGR
In the case of B6, in data set [1], the “Relative activity on ATP, pH 3” value is 0.0; the “Relative activity on ATP, pH 3.5” value was determined as 0.0; the “Relative activity on ATP, pH 4” value is recorded as 0.0; the “Relative activity on ATP, pH 4.5” value was determined as 0.1. For the same molecule, in data set [1], the “Relative activity on ATP, pH 5” value is 0.4; the “Relative activity on ATP, pH 5.5” value came to 0.7; the “Relative activity on ATP, pH 6” value was 1.0; the “Relative activity on ATP, pH 6.5” value amounted to 0.8. Besides, in data set [2], the “Activity on ATP … pH 5.0” value is reported as 0.13 and the “Activity on ATP … pH 6.0” value came to 0.22.

B7: CRC22386: GDA1/CD39 family enzyme, accession WP_173236575.1, SEQ ID NO:12 (protein, listed as Legionella antarctica)
chain: GTVSCNEHQCIAVIDAGSTGSRIHVYAYDMDETNTPVHINEVWTKKIKPGFATIEPNYESIEAYLVTLLSGAPNQDIPVYFYATAGMRLLPASKQKLYYQELQRWFSQQHQWRLIDAKTITGNEEALYDWLSVNYHLDTLKSIQNKSVGVMDMGGASVQIVFPIQKNEEINSNSQVELDLYGHHVNLYVHSFLGLGQTEMSHQFLNSVSCFANDYPLPDGESGRGNAPSCKQEVSSLMNGVHGVNKTIQPVLTANPVDTWFAIGGLTNLADNKLFHFENGELTNQNLMQQADSQICHQQWDKLNSEFPNDDYVYEYCLLSAYYYALMVDGYGIYPEQTVNYVSSALNLDWTKGVVLHH
On to B7, for which, in data set [1], the “Relative activity on ATP, pH 3” value is 0.0; the “Relative activity on ATP, pH 3.5” value stood at 0.0; the “Relative activity on ATP, pH 4” value was determined as 0.0; the “Relative activity on ATP, pH 4.5” value came to 0.0. Moreover, in data set [1], the “Relative activity on ATP, pH 5” value came to 0.2; the “Relative activity on ATP, pH 5.5” value is 0.6; the “Relative activity on ATP, pH 6” value came to 0.8; the “Relative activity on ATP, pH 6.5” value turned out to be 1.0. Further, in data set [2], the “Activity on ATP … pH 5.0” value was 0.36 and the “Activity on ATP … pH 6.0” value came to 0.25.
